Test results published in patent publication US20240360477.

Tested on: MCP-TGIRT (GsI-IIC RT) fusion
Assay: cell_activity
Settings: control used for normalization, HEK293T

Work on “nanoluciferase mRNA with MS2 loops hybridized to DNA primer” yielded an activity (relative to TGIRT) of 1.
